Test results taken from patent US20060040855A1.

Legend:
[1] = biological target: rat LH receptor (rat) (UniProt P16235)
[2] = biological target: rat LH receptor (rat) (UniProt P16235); remark: listed apart in the source
[3] = biological target: human FSH receptor (human) (UniProt P23945)
[4] = biological target: rat LH receptor (rat) (UniProt P16235); remark: listed apart in the source

cyclic AMP accumulation [1]	Efficacy, cyclic AMP accumulation [2] [%]	efficacy in cyclic AMP assays [3]	efficacy in cyclic AMP assays [4]	Substance
40 % of hCG	42			dghCG (hCG lacking the α-subunit loop 2 oligosaccharide) (from UniProt P01215) (ligand)
	24			dgα37-β33 (dg-αY37C/hCGβI33C) (from UniProt P01215) (ligand)
		< 4 % of hFSH	< 10 % of hCG	dgα37-β33CF (dg-αY37C/CF101-109βI33C) (from UniProt P01215) (ligand)
		< 4 % of hFSH	< 10 % of hCG	dgα37-β33CFC (dg-αY37C/CFC101-114βI33C) (from UniProt P01215) (ligand)
